Key:
[1] = molecular target: glucose transporter 4 (GLUT4) on mouse red blood cells (mRBCs) or mRBC membranes (mouse) (UniProt P14142); experiment: ELISA of insulin released from Glu-Insulin loaded mRBCs at 37 C
[2] = molecular target: glucose transporter 4 (GLUT4) on mouse red blood cells (mRBCs) or mRBC membranes (mouse) (UniProt P14142); experiment: ELISA of insulin bound to mRBCs
[3] = molecular target: glucose transporter 4 (GLUT4) on mouse red blood cells (mRBCs) or mRBC membranes (mouse) (UniProt P14142); experiment: flow cytometry (MFI) of Glu-FITC-insulin attached mRBCs treated with free glucose
[4] = molecular target: glucose transporter 4 (GLUT4) on mouse red blood cells (mRBCs) or mRBC membranes (mouse) (UniProt P14142); experiment: loading of 1x10^8 RBCs with 0.5 mg/mL Glu-Insulin overnight, ELISA
[5] = molecular target: glucose transporter 1 (GLUT1) on human red blood cells (hRBCs) (human) (UniProt P11166); experiment: as above
Chain of UniProt P11166 (P11166 whole entry): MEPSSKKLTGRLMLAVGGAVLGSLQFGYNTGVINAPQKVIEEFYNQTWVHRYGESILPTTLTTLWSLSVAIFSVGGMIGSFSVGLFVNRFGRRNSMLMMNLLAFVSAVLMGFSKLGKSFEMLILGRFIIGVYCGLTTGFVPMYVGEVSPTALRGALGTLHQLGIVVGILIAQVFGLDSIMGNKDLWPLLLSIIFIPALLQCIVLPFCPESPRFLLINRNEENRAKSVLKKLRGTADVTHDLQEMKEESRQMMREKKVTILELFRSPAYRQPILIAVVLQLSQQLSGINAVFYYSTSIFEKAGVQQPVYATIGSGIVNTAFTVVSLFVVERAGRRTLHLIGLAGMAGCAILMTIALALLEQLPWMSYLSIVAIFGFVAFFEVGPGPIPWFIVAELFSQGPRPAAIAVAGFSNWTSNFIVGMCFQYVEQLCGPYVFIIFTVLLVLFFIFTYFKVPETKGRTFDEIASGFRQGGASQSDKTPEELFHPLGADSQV

Chain of UniProt P14142 (P14142 whole entry): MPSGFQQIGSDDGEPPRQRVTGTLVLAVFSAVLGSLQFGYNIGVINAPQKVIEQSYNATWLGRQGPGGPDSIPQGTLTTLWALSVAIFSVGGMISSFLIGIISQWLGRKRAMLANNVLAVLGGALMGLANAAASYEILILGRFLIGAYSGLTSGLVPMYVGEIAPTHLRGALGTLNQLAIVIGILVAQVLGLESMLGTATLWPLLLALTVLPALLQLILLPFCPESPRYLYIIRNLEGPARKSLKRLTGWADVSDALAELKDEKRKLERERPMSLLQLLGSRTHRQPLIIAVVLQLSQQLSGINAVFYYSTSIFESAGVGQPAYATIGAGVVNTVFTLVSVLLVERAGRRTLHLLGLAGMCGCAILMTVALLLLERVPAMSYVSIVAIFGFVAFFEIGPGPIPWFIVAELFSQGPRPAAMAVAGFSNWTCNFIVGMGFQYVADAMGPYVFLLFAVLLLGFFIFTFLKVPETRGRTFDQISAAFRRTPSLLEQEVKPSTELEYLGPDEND

Substance “glucose-modified insulin (Glu-Insulin) (from UniProt P01308 90-110; P01308 25-54) (ligand)” has a percent released from mRBCs at 400 mg/dL glucose within 2 h [1] of 50%, a loaded insulin per cell [2] of under 5e-13 g per cell and a decrease of insulin signal on mRBCs at 400 mg/dL glucose [3] of 50%. It also gave a percent of Glu-Insulin bound [4] of 20% and a percent of Glu-Insulin bound [5] of 60%.

Source: patent US20190015515A1
